B1: Azoarcus group I ribozyme (parent)
chain: GUGCCUUGCGCCGGGAAACCACGCAAGGGAUGGUGUCAAAUUCGGCGAAACCUAAGCGCCCGCCCGGGCGUAUGGCAACGCCGAGCCAAGCUUCGGCGCCUGCGCCGAUGAAGGUGUAGAGACUAGACGGCACCCACCUAAGGCAAACGCUAUGGUGAAGGCAUAGUCCAGGGAGUGGCGAAAGUCACACAAACCGG

Variants of: B1
Experiment: reverse-splicing fitness (ratio to wild type); higher = more active; in vitro selection; Mg2+ level not given
Outline: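 An in vitro group I ribozyme library with randomized positions was T7-transcribed and gel-purified. In triplicate, 10 pmol RNA in EPPS pH 7.5 was reacted with 50 pmoles of a 30-nt RNA substrate for 1 h at 37 °C across several added MgCl2 levels (1–48 mM), then stopped with EDTA. Products were reverse transcribed from a substrate-complementary primer, PCR-amplified and sequenced (HiSeq 4000). Fitness is a variant's read proportion after selection over that before, normalised to wild type.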

Variant	reverse-splicing fitness
C82G A111U C150A C169A	0.0114
C82G A111U C150A C169U	0.0113
C82G A111U C150A C169G	0.00899
C82G A120C A145G C169U U176G	0.00453
C82G A120C A145G C169U U176A	0.017
C82G A120C A145G C169U U176C	0.0174
C82G A120C A145U C150A C169A U176A	0.0178
C82G A120C A145U C150A C169A U176G	0.00421
C82G A120C A145U C150A C169A U176C	0.0107
C82G A111U C150U U176G	0.0348
C82G A111U C150U U176C	0.131
C82G A111U C150U U176A	0.0918
C82G A111U A145U C150A C169U	0.00955
C82G A120C A145U C169A	0.00673
C82G A120C A145U C169G	0.0068
C82G A120C A145U C169U	0.0247
C82G A111U C150A U176G	0.0138
C82G A111U C150A U176A	0.025
C82G A111U C150A U176C	0.0357
C82G A120C A145C C150U C169A U176G	0.00525
C82G A120C A145C C150U C169A U176C	0.00587
C82G A120C A145C C150U C169A U176A	0.0117
C82G A120C C150A C169A U176C	0.0213
C82G A120C C150A C169A U176A	0.0216

Variant	reverse-splicing fitness
C82G A120C C150A C169A U176G	0.00601
C82G A120C A145U C169A U176C	0.00989
C82G A120C A145U C169A U176A	0.0121
C82G A120C A145U C169A U176G	0.00379
C82G A120C A145G C150A C169U U176G	0.00589
C82G A120C A145G C150A C169U U176A	0.0145
C82G A120C A145G C150A C169U U176C	0.0165
C82G A111U A145U C150U	0.239
C82G A111U A145U C150G	0.0323
C82G A111U A145U C150U C169A U176C	0.0125
C82G A111U A145U C150U C169A U176A	0.0143
C82G A111U A145U C150U C169A U176G	0.00678
C82G A120C A145C C150U C169G U176G	0.00532
C82G A120C A145C C150U C169G U176C	0.013
C82G A120C A145C C150U C169G U176A	0.0259
C82G A111U A145U C150G U176C	0.0254
C82G A111U A145U C150G U176A	0.0141
C82G A111U A145U C150G U176G	0.0057
C82G A111U A145U C150G C169A U176C	0.0124
C82G A111U A145U C150G C169A U176A	0.0117
C82G A111U A145U C150G C169A U176G	0.00706
C82G A111U A145U C150U C169U U176A	0.0142
C82G A111U A145U C150U C169U U176C	0.0136
C82G A111U A145U C150U C169U U176G	0.00609

Variant	reverse-splicing fitness
C82G A111U C150G C169U	0.0102
C82G A111U C150G C169A	0.0104
C82G A111U C150G C169G	0.00744
C82G A120C A145U C150G C169G U176C	0.00634
C82G A120C A145U C150G C169G U176A	0.00782
C82G A120C A145U C150G C169G U176G	0.00427
C82G A120C A145G C150A U176G	0.0102
C82G A120C A145G C150A U176A	0.0196
C82G A120C A145G C150A U176C	0.034
C82G A120C A145G C150U C169A	0.0102
C82G A120C A145G C150U C169G	0.00909
C82G A120C A145G C150U C169U	0.0243
C82G A111U A145U C169A U176C	0.011
C82G A111U A145U C169A U176A	0.0121
C82G A111U A145U C169A U176G	0.00626
C82G A120C A145C C150G C169U U176A	0.00765
C82G A120C A145C C150G C169U U176G	0.00406
C82G A120C A145C C150G C169U U176C	0.0116
C82G A111U A145U C150A C169G U176G	0.0066
C82G A111U C150A C169U U176G	0.00776
C82G A111U C150A C169U U176C	0.0161
C82G A111U C150A C169U U176A	0.0148
C82G A111U A145U C169A	0.00754
C82G A111U A145U C169U	0.0113

Variant	reverse-splicing fitness
C82G A111U A145U C169G	0.00896
C82G A120C A145G C150A C169G	0.00895
C82G A120C A145G C150A C169A	0.0104
C82G A120C A145G C150A C169U	0.0126
C82G A111U A145U C150U C169G U176G	0.00659
C82G A111U A145U C150U C169G U176A	0.0132
C82G A111U A145U C150U C169G U176C	0.0142
C82G A111U C150U C169A	0.0106
C82G A111U C150U C169G	0.00914
C82G A111U C150U C169U	0.0118
C82G A111U A145U C150G C169U U176A	0.00836
C82G A111U A145U C150G C169U U176G	0.00664
C82G A111U A145U C150G C169U U176C	0.0115
C82G A120C	0.208
C82G A111U C150A C169A U176G	0.00814
C82G A111U C150A C169A U176A	0.0193
C82G A111U C150A C169A U176C	0.0206
C82G A120C A145C C150U U176A	0.0221
C82G A120C A145C C150U U176C	0.0273
C82G A120C A145C C150U U176G	0.00925
C82G A111U A145U C169G U176G	0.00618
C82G A111U A145U C169G U176C	0.0128
C82G A111U A145U C169G U176A	0.0122
C82G A111U C150G C169A U176A	0.011

Variant	reverse-splicing fitness
C82G A111U C150G C169A U176G	0.00732
C82G A111U C150G C169A U176C	0.0132
C82G A120C C150A C169U	0.0118
C82G A120C C150A C169A	0.0151
C82G A120C C150A C169G	0.00837
C82G A120C A145C C150U C169U U176C	0.00971
C82G A120C A145C C150U C169U U176G	0.00439
C82G A120C A145C C150U C169U U176A	0.0146
C82G A120C A145C U176G	0.0157
C82G A120C A145C U176C	0.0842
C82G A120C A145C U176A	0.0678
C82G A111U C150G C169G U176G	0.00662
C82G A111U C150G C169G U176A	0.0074
C82G A111U C150G C169G U176C	0.00587
C82G A120C A145U C150G C169U U176C	0.012
C82G A120C A145U C150G C169U U176A	0.00813
C82G A120C A145U C150G C169U U176G	0.00547
C82G A120C A145C C169G	0.00864
C82G A120C A145C C169A	0.00704
C82G A120C A145C C169U	0.0218
C82G A111U A145U C150U C169A	0.00988
C82G A111U A145U C150U C169G	0.00884
C82G A111U A145U C150U C169U	0.0113
C82G A111U C169A U176C	0.0203

Variant	reverse-splicing fitness
C82G A111U C169A U176A	0.0152
C82G A111U C169A U176G	0.00627
C82G A120C A145G C169G U176G	0.00417
C82G A120C A145G C169G U176C	0.0241
C82G A120C A145G C169G U176A	0.0164
C82G A120C A145C C150G U176C	0.0144
C82G A120C A145C C150G U176G	0.00422
C82G A120C A145C C150G U176A	0.00907
C82G A120C A145U C150A C169U U176C	0.013
C82G A120C A145U C150A C169U U176A	0.0151
C82G A120C A145U C150A C169U U176G	0.00492
C82G A111U C169U	0.0134
C82G A111U C169G	0.00946
C82G A111U C169A	0.00938
C82G A111U C150G U176A	0.01
C82G A111U C150G U176G	0.0043
C82G A111U C150G U176C	0.0207
C82G A120C A145U C150G C169G	0.00766
C82G A120C A145U C150G C169U	0.0102
C82G A120C A145U C150G C169A	0.00974
C82G A111U C150G	0.0227
C82G A111U C150A	0.0323
C82G A111U C150U	0.192
C82G A120C A145G C150G	0.0242

Variant	reverse-splicing fitness
C82G A120C A145G C150U	0.163
C82G A120C A145G C150A	0.0297
C82G A120C A145U C150A U176C	0.0216
C82G A120C A145U C150A U176A	0.0188
C82G A120C A145U C150A U176G	0.00735
C82G A120C A145U U176C	0.0999
C82G A120C A145U U176G	0.0177
C82G A120C A145U U176A	0.0752
C82G A120C A145U C150U U176A	0.0489
C82G A120C A145U C150U U176C	0.0672
C82G A120C A145U C150U U176G	0.0119
C82G A120C A145G C150A C169G U176G	0.0054
C82G A120C A145G C150A C169G U176A	0.0184
C82G A120C A145G C150A C169G U176C	0.0256
C82G A120C A145U C150U C169U U176A	0.0152
C82G A120C A145U C150U C169U U176C	0.0148
C82G A120C A145U C150U C169U U176G	0.00456
C82G A120C A145G C150G U176C	0.0168
C82G A120C A145G C150G U176G	0.00687
C82G A120C A145G C150G U176A	0.0102
C82G A120C A145G C150U C169G U176C	0.0205
C82G A120C A145G C150U C169G U176A	0.0139
C82G A120C A145G C150U C169G U176G	0.00538

Source: the RNAGym collection of RNA variant scans (doi:10.1093/molbev/msab373)
